Measured values as given in the supplement of paper PMC10567573.
± gives the standard deviation.

Assay: protein stability index of a GFP-peptide fusion (GPS, HEK-293T) (PSI 1-6); higher = more stable
[1] = treatment: DMSO, c terminus: a fixed tail appended
[2] = treatment: MLN4924 1 uM, 8 h, c terminus: a fixed tail appended
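Note: 24-mer peptide tiles fused after GFP, lentivirally expressed, FACS-sorted into six equal bins by GFP/DsRed ratio, decoded by Illumina sequencing, PSI is the read-weighted mean bin number.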

| Sequence | protein stability index [1] | protein stability index [2] | protein stability index (treatment: DMSO, c terminus: native) | protein stability index (treatment: MLN4924 1 uM, 8 h, c terminus: native) |
| --- | --- | --- | --- | --- |
| GSGYEKLGPSRDPDPLNICVFILL [RTP4] | 3.15 ± 0.2 | 2.45 ± 0.68 |  |  |
| GSNPPYLPFRDASFGNCTYNLTIL [CDC14A] | 2.6 ± 0.69 | 2.8 ± 0.73 |  |  |
| GSPDDSHPKDGPSPGGTLMDLSER [DLC1] | 5.54 ± 0.32 | 5.48 ± 0.28 |  |  |
| GSPVSSWILLAESNSADDETDDPR [OAS1] | 5.02 ± 0.27 | 4.99 ± 0.39 |  |  |
| GSRVISHYAGQDATDPFVAFHINK [FADS1] | 3.33 ± 0.31 | 3.35 ± 0.22 |  |  |
| GSSSVALPKEASDGTGASQEPPTT [TOR1AIP2] | 5.4 ± 0.43 | 5.6 ± 0.34 |  |  |
| GTAGPLALARDLLSETADPFFVLN [GMPPB] | 3.18 ± 0.31 | 3.23 ± 0.27 |  |  |
| GTRGRLESAQATFQAHRDKYEKLR [ARFIP2] | 4.27 ± 0.31 | 4.44 ± 0.28 |  |  |
| GTRYSAPANLYVRELREVRRVPPR [PTPRD] | 4.23 ± 0.23 | 3.9 ± 0.12 |  |  |
| GVGAYGTVYKARDPHSGHFVALKS [CDK4] | 2.89 ± 0.12 | 3.05 ± 0.32 |  |  |
| GVGGKRSSKSDADSGFLGLRPTSV [NOP53] | 4.16 ± 0.44 | 4.03 ± 0.27 |  |  |
| GVIDLFGDAFGSSASEPQPASQAA [SNAP91] | 3.98 ± 0.14 | 4.11 ± 0.17 |  |  |
| GVLVEDSNNHHLMLEASEWATIEG [ZBED1] | 4.2 ± 0.33 | 4.6 ± 0.32 |  |  |
| GVSFSTVENELMISYLMFLQILVY [FAM98B] | 3.08 ± 0.45 | 3.22 ± 0.41 |  |  |
| GVSYTFDNEDSELNGDYGENIYPY [MIA2] | 3.93 ± 0.061 | 3.77 ± 0.55 |  |  |
| GWFVRELRVEFAAENYLSGGGPGD [FBXO33] | 2.14 ± 0.27 | 2.21 ± 0.28 |  |  |
| GYPAAPPAVPFAPHFLQGGPFPLP [TBX6] | 2.52 ± 0.58 | 2.7 ± 0.35 |  |  |
| HADCDRRSRIEALELLGASFANDR [FEM1B] | 3.98 ± 0.31 | 4.17 ± 0.19 |  |  |
| HAVVEVEDVPLAAKLVDLPCVIES [TAF7L] | 3.86 ± 0.28 | 4.03 ± 0.17 |  |  |
| HCGELKRRLGLSTLGELKQNLSRS [TPD52L2] | 3.04 ± 0.22 | 3.22 ± 0.44 |  |  |
| HFCVDDTKLLSGSYDCTVKLWDPV [WDR88] | 2.65 ± 0.24 | 2.58 ± 0.23 |  |  |
| HGDYFRLLLPGIYTVSATAPGYDP [CPN1] | 2.78 ± 0.71 | 2.48 ± 0.48 |  |  |

| Sequence | protein stability index [1] | protein stability index [2] | protein stability index (treatment: DMSO, c terminus: native) | protein stability index (treatment: MLN4924 1 uM, 8 h, c terminus: native) |
| --- | --- | --- | --- | --- |
| HGIELHSDVVEYAKEKLESFIKNS [PCMTD1] | 3.95 ± 0.35 | 4.04 ± 0.15 |  |  |
| HGRHIDCPATWGPSVEQAADSLDF [FOXJ1] | 4.31 ± 0.22 | 4.58 ± 0.11 |  |  |
| HIFAHRIYLATSSSKFYDLFLMEC [RHOBTB1] | 3.07 ± 0.6 | 2.38 ± 0.49 |  |  |
| HKTHQAPASASSLPGTGAQLPPQP [DYRK1B] | 4.55 ± 0.43 | 4.97 ± 0.22 |  |  |
| HLDHYYQEELPALLKALVSELSEH [FCHSD1] | 2.3 ± 0.079 | 2.15 ± 0.37 |  |  |
| HLQEYAGNFQGIRFHYDRNPGTDA [FATE1] | 3.37 ± 0.39 | 3.46 ± 0.3 |  |  |
| HMVKISGGPRISYPLLHEWALREG [MAGEA6] | 2.47 ± 0.23 | 2.46 ± 0.22 |  |  |
| HRSACSSAAVRGHPRALPPDARPH [HAGHL] | 3.81 ± 0.19 | 3.77 ± 0.17 |  |  |
| HSYMGMRGFCAFLGSWLVPFAYLT [POMT2] | 2.96 ± 0.86 | 3.04 ± 0.62 |  |  |
| HTCLMISCYKGHREIARYLLEQGA [FEM1A] | 2.46 ± 0.5 | 2.38 ± 0.35 |  |  |
| HTGERPYECTVCKKRFTRRSHLIG [ZNF449] | 2.67 ± 0.36 | 3.17 ± 0.88 |  |  |
| HVIGEDAACIAYIRLTQYIDGQGR [CAMK2B] | 2.15 ± 0.21 | 2.08 ± 0.2 |  |  |
| HWATGYSKSSHPLIRSLFHGFLFM [SOAT1] | 2.86 ± 0.7 | 2.49 ± 0.56 |  |  |
| HYICTLKQPHLLLEKYSYYLISG [PNLIPRP1] |  |  | 3.31 ± 0.66 | 3.39 ± 0.14 |
| HYYPKLMSIMGNVLRFLPAFVRMK [GFOD1] | 2.41 ± 0.12 | 2.24 ± 0.12 |  |  |
| IANYELVYKDGEHGEEQRITIEPG [PTPRD] | 4.64 ± 0.34 | 4.8 ± 0.28 |  |  |
| IAYYSYIYSVVDLGMYQKVTSYCR [SLC19A2] | 3.28 ± 0.38 | 2.62 ± 0.071 |  |  |
| ICLEMFTKPVVILPCQHNLCRKCA [TRIM63] | 2.2 ± 0.054 | 2.41 ± 0.13 |  |  |
| IDILWRQDIDLGAGREVFDYSHRQ [NFE2L1] | 2.24 ± 1 | 2.49 ± 0.34 |  |  |
| IENRDVAKSVLKERGLKKIRLGIE [BTBD10] | 3.36 ± 0.28 | 3.32 ± 0.13 |  |  |
| IFRCFCPVFLHSQMLWELVLLGEP [DENND6A] | 3.17 ± 0.39 | 2.87 ± 0.33 |  |  |
| IGAAPFSGRRNWCSYVVTRTISCH [EMID1] | 2.23 ± 0.27 | 2.07 ± 0.23 |  |  |

| Sequence | protein stability index [1] | protein stability index [2] | protein stability index (treatment: DMSO, c terminus: native) | protein stability index (treatment: MLN4924 1 uM, 8 h, c terminus: native) |
| --- | --- | --- | --- | --- |
| IGAFLNLVVLRFLTMNSEDERRDA [KCNK9] | 3.27 ± 0.77 | 3.02 ± 0.6 |  |  |
| IGGSGFLGQHMVEQLLARGYAVNV [NSDHL] | 2.16 ± 0.054 | 2.23 ± 0.2 |  |  |
| IGTMAGITTPIIDTFKVPKEMFTV [SLC6A17] | 2.45 ± 0.3 | 2.71 ± 0.24 |  |  |
| IHFDSYITCVSGAIVDLISRQYDK [FBXO33] | 2.7 ± 0.47 | 2.81 ± 0.53 |  |  |
| IIEELGEQRDQLERTKSRLVNTSE [VTI1B] | 4.57 ± 0.41 | 4.63 ± 0.15 |  |  |
| IKMILKMVQLDSIEDLEVTCTWKL [PRAME] | 2.89 ± 0.29 | 2.99 ± 0.42 |  |  |
| ILNLERDVEDLQRDKARLLREKVE [NFE2L1] | 3.96 ± 0.51 | 3.93 ± 0.41 |  |  |
| ILSKMPKPKPPPNSEGEQGPNGSQ [CCNC] | 5.07 ± 0.23 | 5.1 ± 0.12 |  |  |
| IMGNLLIIVTIMASQSLGSPMYFF [OR4A15] | 3.35 ± 0.29 | 3.52 ± 0.3 |  |  |
| IPAVGSSLSEALDLIESDPDAWCD [MYBL2] | 4.47 ± 0.58 | 4.58 ± 0.23 |  |  |
| IRLQAELEEGENPVPAFQSDGTDE [SMG5] | 5.27 ± 0.14 | 5.12 ± 0.23 |  |  |
| IRSPRPASVATWAIFVHRVGQPSI [CTBP1-DT] | 2.46 ± 0.5 | 2.47 ± 0.31 |  |  |
| ISCPTCRRETVLFTDYGLAALAVN [RNF208] | 2.15 ± 0.13 | 2.22 ± 0.28 |  |  |
| ISPKARCLIRSLLRREPSERLTAP [TRIB1] | 2.22 ± 0.24 | 2.33 ± 0.39 |  |  |
| ISQYEDDLPPPPADPVLDLPLPPP [APBB1IP] | 4.93 ± 0.18 | 4.913 ± 0.048 |  |  |
| ITFPSLESCEEKNQLILTASADRT [WDR41] | 4.02 ± 0.29 | 4.1 ± 0.35 |  |  |
| ITIGYRVYHSYDLPWFRTLSWYFL [CDS1] | 2.92 ± 0.42 | 3.1 ± 0.6 |  |  |
| ITLFLLGAAKGKEVCYEDLGCFSD [PNLIPRP1] | 2.74 ± 0.43 | 3.24 ± 0.43 |  |  |
| IVADIELENVLDPDSFYELKSQPL [TFE3] | 2.65 ± 0.47 | 3.09 ± 0.51 |  |  |
| IVADILLYVVIPTRRSTAEAFQIV [SPNS1] | 2.97 ± 0.34 | 3.1 ± 0.18 |  |  |
| IVAIIPYFITLGTEIAEQEGNQKG [KCNA1] | 2.87 ± 0.71 | 2.55 ± 0.48 |  |  |
